For one sequence, MMP-1 activity results are on record in US20250262139A1, “POLYPEPTIDES AND METHODS FOR IMPROVING SKIN CONDITIONS” (INTERK PEPTIDE THERAPEUTICS LIMITED, priority 2020, published 2025).

Where no end group is shown, it is not given here.

The target of this test is T1, Human rheumatoid synovial fibroblast MMP-1 (Homo sapiens, UniProt P03956).
T1 construct: endogenous in cells; host or cells: human rheumatoid synovial fibroblasts
T1 sequence (P03956 100-469): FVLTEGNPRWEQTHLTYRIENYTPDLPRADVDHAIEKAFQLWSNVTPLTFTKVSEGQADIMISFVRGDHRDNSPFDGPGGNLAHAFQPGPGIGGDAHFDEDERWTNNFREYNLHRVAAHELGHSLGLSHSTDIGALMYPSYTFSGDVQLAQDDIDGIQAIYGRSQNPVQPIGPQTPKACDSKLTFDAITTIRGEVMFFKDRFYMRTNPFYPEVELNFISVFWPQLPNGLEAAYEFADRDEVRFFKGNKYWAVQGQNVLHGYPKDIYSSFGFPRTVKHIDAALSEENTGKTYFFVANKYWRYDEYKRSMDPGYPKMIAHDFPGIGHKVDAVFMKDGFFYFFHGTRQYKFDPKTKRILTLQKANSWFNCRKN
Kind of test: MMP-1 activity, fluorogenic substrate assay. The class given is biochemical. The following applies: 5, 10, 800 and 1000 μM; 8 nM activated enzyme. On the procedure:
Human rheumatoid synovial fibroblast MMP-1 proenzyme, activated with APMA for 60 minutes at 37° C., was used as an active enzyme. The polypeptide IK34720 (SEQ ID NO: 3) at a concentration of 5 μM. 10 μM 800 μM and 1000 μM was pre-incubated with 8 nM activated enzyme in modified MOPS buffer pH 7.2 for 60 minutes at 37° C. The reaction was initiated by addition of […] Mca-Pro-Leu-Gly-Leu-Dap-Ala-Arg followed by a 2 hour incubation period. Determination of the amount of Mca-Pro-Leu-Gly formed was read spectrofluorimetrically at 340 nm/400 nm.

On to “RSKAKNPLYRRRRRRRRR (not fully specified (some residues)) [IK34720]”, for which the MMP-1 activity entry is on record as “inhibits MMP-1 activation in a dose dependent manner”.
